Source: US20220332804A1 (CSL INNOVATION, published 2022)

Assays:
Test in all cases: SPR, antibody captured, C2 as analyte;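 note: biacore at 37 °C, anti-C2 mAbs held by immobilised goat anti-human IgG, C2 alanine or serine mutants injected, double-referenced sensorgrams fitted to a 1:1 kinetic or steady-state model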
[1] = target: T1, human C2 H331A (human, UniProt P06681 21-752)
T1 sequence: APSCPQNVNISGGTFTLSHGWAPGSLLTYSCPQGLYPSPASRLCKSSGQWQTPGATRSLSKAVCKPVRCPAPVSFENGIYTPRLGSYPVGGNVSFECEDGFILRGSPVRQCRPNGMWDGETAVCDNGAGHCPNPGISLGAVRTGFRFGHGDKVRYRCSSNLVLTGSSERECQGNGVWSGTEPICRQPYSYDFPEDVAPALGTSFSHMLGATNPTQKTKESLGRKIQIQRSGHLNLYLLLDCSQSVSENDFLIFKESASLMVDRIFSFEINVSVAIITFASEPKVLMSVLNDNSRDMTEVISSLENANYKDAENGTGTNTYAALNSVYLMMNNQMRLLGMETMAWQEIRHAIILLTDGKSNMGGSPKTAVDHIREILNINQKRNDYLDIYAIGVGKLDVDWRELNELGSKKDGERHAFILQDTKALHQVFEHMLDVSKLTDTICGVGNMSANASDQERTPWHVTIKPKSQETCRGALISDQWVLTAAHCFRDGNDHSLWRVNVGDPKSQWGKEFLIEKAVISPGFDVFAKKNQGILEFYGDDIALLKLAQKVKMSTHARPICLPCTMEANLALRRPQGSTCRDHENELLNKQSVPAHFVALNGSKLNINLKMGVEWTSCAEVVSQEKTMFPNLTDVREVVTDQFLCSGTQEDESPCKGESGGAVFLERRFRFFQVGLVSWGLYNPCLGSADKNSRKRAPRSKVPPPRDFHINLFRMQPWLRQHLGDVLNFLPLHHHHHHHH

[2] = target: T2, human C2 V418A (human, UniProt P06681 21-752)
T2 sequence: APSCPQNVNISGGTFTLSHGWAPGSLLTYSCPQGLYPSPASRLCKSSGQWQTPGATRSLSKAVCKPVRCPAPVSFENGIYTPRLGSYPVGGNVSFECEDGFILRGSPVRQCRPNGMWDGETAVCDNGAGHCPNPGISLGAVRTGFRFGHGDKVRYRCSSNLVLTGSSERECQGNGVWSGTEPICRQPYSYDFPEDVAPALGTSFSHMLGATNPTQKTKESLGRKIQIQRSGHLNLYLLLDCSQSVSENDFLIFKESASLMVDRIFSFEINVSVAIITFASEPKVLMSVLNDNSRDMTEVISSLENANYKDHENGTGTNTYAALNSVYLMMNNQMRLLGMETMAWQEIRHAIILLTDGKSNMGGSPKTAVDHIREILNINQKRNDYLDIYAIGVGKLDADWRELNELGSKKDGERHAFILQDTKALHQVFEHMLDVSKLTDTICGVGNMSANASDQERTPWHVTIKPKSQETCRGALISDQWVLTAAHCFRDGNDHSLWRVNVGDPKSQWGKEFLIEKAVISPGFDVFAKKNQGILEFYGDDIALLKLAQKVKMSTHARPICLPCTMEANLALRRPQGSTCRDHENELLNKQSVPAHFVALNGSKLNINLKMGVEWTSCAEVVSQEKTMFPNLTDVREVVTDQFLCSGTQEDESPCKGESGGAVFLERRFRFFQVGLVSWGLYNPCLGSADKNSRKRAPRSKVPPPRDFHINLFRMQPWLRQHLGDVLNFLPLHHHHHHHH

[3] = target: T3, human C2 D419A (human, UniProt P06681 21-752)
T3 sequence: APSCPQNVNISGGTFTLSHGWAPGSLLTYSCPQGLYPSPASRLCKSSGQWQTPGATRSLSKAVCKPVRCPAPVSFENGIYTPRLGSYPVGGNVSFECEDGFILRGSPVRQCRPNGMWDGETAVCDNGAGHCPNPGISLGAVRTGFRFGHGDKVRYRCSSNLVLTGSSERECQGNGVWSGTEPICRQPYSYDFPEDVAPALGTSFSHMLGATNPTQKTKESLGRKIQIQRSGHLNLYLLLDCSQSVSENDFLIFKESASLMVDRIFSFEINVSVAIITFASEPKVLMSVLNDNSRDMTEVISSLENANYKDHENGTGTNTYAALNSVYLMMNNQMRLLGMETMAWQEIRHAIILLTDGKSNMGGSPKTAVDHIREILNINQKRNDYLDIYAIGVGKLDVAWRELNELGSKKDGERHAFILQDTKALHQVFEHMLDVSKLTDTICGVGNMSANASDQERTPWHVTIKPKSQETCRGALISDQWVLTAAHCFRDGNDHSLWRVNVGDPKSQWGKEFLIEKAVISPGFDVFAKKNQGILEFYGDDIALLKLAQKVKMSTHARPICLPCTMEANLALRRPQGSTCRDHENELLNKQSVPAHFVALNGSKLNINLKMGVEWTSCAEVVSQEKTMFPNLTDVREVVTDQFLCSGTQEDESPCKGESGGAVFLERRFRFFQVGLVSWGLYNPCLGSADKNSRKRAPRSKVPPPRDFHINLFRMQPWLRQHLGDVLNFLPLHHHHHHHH

[4] = target: T4, human C2 D431A (human, UniProt P06681 21-752)
T4 sequence: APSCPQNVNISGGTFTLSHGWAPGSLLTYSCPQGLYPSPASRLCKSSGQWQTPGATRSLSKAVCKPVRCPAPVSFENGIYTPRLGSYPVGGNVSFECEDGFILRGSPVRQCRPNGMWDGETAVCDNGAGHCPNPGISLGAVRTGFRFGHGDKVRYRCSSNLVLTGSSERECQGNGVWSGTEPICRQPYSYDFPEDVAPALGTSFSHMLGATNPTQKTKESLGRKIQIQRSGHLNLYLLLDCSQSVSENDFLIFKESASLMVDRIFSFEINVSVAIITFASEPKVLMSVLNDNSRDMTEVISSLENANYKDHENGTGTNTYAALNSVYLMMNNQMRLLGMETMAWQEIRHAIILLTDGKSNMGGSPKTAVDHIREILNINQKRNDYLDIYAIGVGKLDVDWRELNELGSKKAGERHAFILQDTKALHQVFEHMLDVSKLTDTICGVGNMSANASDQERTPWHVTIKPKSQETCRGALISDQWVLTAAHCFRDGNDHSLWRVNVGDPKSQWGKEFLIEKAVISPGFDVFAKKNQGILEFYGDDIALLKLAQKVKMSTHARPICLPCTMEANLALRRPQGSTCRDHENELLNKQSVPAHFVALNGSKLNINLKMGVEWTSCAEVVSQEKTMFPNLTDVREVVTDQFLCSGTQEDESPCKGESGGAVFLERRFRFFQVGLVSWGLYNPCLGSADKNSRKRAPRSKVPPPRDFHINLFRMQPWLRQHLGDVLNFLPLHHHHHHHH

B1: RF16-242 (antibody, human IgG4 S228P, lambda, V domains shown)
VH: EVQLLQSGAEVKKPGESLKISCKGSGYSFTSYWIGWVRQMPGKGLEWMGIIYPGDSDTRYSPSFQGQVTISADKSISTAYLQWSSLKASDTAMYYCARRGHYGDYFDYWGQGTLVTVSS
VL: SYELTQPPSVSVSPGQTARITCSGDALPKKYAYWYHQKSGQAPVLVIYEDRRRPSEIPERFSGSSSGTMATLTITGAQVEDEGVYFCYSRDRAGNQRVFGGGTQLTVLG
notes: pH-dependent anti-C2 antibody from a phage display library
Kd [1]: 191 nM | Kd [2]: 6.8 nM | Kd [3]: 10.5 nM | Kd [4]: 22.9 nM
